Molecular target: Gloeobacter violaceus deeply-rooted thioredoxin reductase (GvDTR), renamed ferredoxin flavin-thioredoxin reductase (GvFFTR) (Gloeobacter violaceus) (UniProt Q7NMP6)
Assay: ITC

stoichiometry N: 1
Substance: Gloeobacter violaceus plant-type [2Fe-2S] ferredoxin 1 (GvFdx1) (natural protein)
